Experimental data from the supplement of paper PMC10065799, “High-throughput profiling of sequence recognition by tyrosine kinases and SH2 domains using bacterial peptide display” (eLife, 2023).

What was measured:
[1] = molecular target: Grb2 SH2 (UniProt P62993); assay: SH2 binding enrichment of the phosphorylated peptide, bacterial display (enrichment ratio); higher = better substrate or ligand; peptides without Tyr show the background
[2] = molecular target: SHP2-C SH2; assay: as above
[3] = molecular target: c-Src SH2; assay: as above
[4] = molecular target: EPHB2 (UniProt P29323); assay: phosphorylation enrichment, bacterial display (enrichment ratio); higher = better substrate or ligand; peptides without Tyr show the background
Chain of EPHB2 (P29323 whole entry, looked up): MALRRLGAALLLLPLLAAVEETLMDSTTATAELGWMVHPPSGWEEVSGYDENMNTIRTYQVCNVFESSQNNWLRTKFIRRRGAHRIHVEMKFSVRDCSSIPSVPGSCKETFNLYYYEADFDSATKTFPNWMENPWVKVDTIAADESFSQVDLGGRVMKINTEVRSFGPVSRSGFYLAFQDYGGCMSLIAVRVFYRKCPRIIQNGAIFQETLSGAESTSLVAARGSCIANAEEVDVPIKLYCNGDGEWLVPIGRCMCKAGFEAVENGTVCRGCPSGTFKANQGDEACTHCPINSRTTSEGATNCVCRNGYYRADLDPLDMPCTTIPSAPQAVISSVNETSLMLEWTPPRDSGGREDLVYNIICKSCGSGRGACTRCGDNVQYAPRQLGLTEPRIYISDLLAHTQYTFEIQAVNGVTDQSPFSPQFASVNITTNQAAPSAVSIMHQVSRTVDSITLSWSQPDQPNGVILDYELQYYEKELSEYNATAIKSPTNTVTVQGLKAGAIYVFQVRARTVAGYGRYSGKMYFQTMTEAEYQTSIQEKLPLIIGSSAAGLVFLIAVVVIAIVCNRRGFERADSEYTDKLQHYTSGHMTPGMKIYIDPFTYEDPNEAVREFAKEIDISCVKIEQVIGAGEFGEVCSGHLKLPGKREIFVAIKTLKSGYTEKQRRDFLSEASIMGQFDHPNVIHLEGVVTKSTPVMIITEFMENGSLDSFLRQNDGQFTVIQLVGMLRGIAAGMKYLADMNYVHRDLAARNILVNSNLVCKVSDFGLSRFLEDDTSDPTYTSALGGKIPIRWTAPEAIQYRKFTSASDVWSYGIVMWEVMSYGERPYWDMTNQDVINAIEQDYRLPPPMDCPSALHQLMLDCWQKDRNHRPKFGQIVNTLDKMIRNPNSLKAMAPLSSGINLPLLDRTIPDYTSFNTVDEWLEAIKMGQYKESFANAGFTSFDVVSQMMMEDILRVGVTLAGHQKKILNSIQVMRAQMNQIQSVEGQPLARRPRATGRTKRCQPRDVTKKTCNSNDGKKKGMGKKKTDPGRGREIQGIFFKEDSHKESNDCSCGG

[5] = molecular target: Fes (UniProt P07332); assay: as above
Chain of Fes (P07332 whole entry, looked up): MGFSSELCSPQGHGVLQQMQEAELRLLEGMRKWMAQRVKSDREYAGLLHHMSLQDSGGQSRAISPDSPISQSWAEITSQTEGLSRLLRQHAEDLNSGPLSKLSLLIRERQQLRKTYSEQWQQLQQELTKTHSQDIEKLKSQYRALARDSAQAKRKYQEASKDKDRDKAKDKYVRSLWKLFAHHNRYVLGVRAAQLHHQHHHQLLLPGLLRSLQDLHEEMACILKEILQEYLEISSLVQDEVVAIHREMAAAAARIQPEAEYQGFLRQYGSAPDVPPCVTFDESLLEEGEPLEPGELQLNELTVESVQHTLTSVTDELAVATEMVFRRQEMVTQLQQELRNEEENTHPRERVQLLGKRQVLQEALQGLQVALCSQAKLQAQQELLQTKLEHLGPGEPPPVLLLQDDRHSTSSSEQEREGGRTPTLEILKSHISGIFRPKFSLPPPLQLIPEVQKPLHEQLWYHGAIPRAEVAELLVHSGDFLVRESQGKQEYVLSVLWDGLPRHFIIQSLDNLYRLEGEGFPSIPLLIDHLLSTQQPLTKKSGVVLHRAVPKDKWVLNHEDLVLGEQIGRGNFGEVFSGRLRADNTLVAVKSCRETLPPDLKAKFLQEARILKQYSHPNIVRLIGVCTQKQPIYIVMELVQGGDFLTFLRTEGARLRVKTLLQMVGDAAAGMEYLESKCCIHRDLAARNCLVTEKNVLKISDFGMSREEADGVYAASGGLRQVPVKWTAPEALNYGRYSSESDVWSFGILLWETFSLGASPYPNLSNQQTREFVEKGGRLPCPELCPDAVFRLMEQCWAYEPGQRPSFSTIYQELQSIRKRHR

[6] = system: Fer (mouse); assay: as above
[7] = molecular target: FGFR1 (UniProt P11362); assay: as above
[8] = molecular target: Hck (UniProt P08631); assay: as above
Chain of Hck (P08631 whole entry, looked up): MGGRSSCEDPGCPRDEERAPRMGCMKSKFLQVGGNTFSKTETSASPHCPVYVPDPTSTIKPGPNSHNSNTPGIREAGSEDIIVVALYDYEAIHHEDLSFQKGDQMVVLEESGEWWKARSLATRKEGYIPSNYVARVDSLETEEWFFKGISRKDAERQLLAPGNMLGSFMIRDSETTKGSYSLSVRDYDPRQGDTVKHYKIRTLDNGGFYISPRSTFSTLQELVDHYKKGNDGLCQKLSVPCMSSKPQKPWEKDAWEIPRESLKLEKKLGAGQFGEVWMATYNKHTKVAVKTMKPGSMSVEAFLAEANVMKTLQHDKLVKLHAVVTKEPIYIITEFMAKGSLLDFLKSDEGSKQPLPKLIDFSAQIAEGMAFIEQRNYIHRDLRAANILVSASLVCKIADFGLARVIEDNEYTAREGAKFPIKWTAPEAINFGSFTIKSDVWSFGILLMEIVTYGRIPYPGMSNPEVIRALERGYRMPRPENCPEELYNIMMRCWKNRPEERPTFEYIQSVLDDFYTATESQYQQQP

[9] = system: c-Abl (mouse); assay: as above
[10] = molecular target: Jak2 (UniProt O60674); assay: as above
[11] = system: c-Src; assay: as above
[12] = molecular target: EPHB1 (UniProt P54762); assay: as above
Chain of EPHB1 (P54762 whole entry, looked up): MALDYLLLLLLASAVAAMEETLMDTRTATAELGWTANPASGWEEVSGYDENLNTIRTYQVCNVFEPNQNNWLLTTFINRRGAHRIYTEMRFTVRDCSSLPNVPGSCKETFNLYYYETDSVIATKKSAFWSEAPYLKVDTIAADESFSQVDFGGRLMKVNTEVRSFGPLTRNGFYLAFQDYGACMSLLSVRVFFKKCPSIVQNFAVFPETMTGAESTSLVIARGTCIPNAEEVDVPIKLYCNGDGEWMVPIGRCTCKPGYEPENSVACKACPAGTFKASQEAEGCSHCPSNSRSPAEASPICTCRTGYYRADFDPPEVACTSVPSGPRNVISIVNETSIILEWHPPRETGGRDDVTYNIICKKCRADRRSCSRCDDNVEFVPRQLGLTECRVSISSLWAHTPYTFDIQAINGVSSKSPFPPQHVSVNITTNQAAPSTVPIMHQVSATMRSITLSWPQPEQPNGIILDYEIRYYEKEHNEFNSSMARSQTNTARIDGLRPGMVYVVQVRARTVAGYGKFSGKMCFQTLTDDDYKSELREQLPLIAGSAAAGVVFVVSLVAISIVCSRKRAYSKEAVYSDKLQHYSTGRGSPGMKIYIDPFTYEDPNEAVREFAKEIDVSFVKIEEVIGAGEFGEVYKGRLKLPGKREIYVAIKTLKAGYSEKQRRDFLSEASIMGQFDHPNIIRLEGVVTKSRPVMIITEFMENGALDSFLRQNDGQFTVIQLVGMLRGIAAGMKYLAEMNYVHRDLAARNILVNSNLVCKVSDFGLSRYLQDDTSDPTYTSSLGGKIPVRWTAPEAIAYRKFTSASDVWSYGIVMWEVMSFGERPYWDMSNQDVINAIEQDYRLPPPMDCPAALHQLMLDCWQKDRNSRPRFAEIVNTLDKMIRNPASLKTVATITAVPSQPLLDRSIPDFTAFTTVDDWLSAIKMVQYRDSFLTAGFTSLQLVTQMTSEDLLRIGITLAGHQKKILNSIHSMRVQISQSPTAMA

[13] = system: AncSZ; assay: as above
[14] = molecular target: MERTK (UniProt Q12866); assay: as above
Chain of MERTK (Q12866 whole entry, looked up): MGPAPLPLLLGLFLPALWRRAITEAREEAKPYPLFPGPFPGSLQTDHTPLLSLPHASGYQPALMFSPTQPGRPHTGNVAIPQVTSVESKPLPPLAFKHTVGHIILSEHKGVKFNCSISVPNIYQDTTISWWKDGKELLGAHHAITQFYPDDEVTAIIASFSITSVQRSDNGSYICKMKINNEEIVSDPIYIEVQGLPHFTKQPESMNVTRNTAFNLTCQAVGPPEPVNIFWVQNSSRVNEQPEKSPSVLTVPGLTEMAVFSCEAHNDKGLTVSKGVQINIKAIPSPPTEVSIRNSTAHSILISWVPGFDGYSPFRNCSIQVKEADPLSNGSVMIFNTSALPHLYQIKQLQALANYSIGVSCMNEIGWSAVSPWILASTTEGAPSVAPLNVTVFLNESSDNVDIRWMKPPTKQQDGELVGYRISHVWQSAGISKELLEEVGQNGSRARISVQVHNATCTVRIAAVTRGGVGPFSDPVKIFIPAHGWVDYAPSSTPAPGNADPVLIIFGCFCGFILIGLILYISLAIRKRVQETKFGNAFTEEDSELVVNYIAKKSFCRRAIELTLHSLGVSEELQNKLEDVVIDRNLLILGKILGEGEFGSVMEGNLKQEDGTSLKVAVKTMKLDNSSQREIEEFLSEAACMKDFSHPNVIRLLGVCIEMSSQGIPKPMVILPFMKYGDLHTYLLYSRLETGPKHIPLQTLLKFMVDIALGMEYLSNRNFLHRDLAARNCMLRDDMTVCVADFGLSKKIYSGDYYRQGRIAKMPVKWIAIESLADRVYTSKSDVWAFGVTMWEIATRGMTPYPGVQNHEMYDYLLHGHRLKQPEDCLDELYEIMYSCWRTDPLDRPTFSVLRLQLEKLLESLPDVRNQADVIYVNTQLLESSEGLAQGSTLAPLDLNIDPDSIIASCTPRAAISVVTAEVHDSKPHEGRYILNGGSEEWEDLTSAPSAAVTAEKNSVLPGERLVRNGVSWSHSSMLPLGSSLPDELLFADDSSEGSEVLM

[15] = molecular target: FGFR3 (UniProt P22607); assay: as above
[16] = molecular target: Fyn (UniProt P06241); assay: as above
Chain of Fyn (P06241 whole entry, looked up, the tested form may be a part): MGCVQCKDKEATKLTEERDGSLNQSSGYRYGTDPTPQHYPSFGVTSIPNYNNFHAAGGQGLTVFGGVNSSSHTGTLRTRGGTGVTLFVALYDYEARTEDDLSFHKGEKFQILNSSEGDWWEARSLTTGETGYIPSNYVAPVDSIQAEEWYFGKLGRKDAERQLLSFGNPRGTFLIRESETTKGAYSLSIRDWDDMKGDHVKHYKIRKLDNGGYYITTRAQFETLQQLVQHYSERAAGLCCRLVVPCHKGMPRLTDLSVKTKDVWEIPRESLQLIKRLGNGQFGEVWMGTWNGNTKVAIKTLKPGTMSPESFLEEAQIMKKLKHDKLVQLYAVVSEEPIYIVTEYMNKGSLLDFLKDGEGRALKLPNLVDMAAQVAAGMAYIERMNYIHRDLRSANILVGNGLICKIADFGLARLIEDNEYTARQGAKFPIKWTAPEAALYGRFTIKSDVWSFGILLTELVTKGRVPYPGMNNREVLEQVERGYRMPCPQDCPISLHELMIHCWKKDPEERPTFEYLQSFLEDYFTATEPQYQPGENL
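Wherever SH2 binding enrichment of the phosphorylated peptide, bacterial display is given: peptide library displayed on the E. coli surface as eCPX fusions, selected cells deep-sequenced, score is each peptide's frequency after selection divided by its frequency in the input.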
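Wherever phosphorylation enrichment, bacterial display is given: 11-residue human phosphosite peptides and single-mutation variants displayed on the E. coli surface, counted by deep sequencing, each peptide's frequency after selection divided by its frequency in the unselected input library; frequency after pTyr selection over input frequency; kinase dosed for 20-30% of maximal phosphorylation in three min.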

Row | Sequence | SH2 binding enrichment [1] | SH2 binding enrichment [2] | SH2 binding enrichment [3] | phosphorylation enrichment [4] | phosphorylation enrichment [5] | phosphorylation enrichment [6] | phosphorylation enrichment [7] | phosphorylation enrichment [8] | phosphorylation enrichment [9] | phosphorylation enrichment [10] | phosphorylation enrichment [11] | phosphorylation enrichment [12] | phosphorylation enrichment [13] | phosphorylation enrichment [14] | phosphorylation enrichment [15] | phosphorylation enrichment [16]
1 | NYYDTCIKTCL [IQGAP2_Y1445_Y1445C] | 0.856 | 0.706 | 3.21 | 2.32 | 1.07 | 1.05 | 7.57 | 1.51 | 0.894 | 1.17 | 1.16 | 7.47 | 1.3 | 5.87 | 5.45 | 1.52
2 | PADCRYYAFPQ [GAMT_Y222] | 0.898 | 0.847 | 3.02 | 12.2 | 1.7 | 10.4 | 10.9 | 3.84 | 5.14 | 6.5 | 4.71 | 12.1 | 3.91 | 14.4 | 8.15 | 2.3
3 | PDKRIYQFTAA [SKAP2_Y197] | 0.82 | 0.57 | 0.645 | 0.553 | 0.708 | 0.769 | 0.476 | 0.578 | 0.47 | 0.651 | 0.729 | 0.779 | 0.73 | 0.999 | 0.497 | 0.566
4 | PDNEPYIFKVF [PIK3AP1_Y553] | 1.1 | 1 | 0.755 | 0.787 | 2.25 | 0.647 | 1.16 | 0.758 | 1.19 | 2.79 | 1.05 | 0.684 | 2.37 | 0.725 | 1.5 | 0.846
5 | PESIPYRKFTT [NTRK1_Y701_L700P] | 0.747 | 0.507 | 0.476 | 0.668 | 0.917 | 0.353 | 0.594 | 0.721 | 0.879 | 0.992 | 0.485 | 0.598 | 0.823 | 0.86 | 0.936 | 0.375
6 | PESTLYRKFTT [NTRK1_Y701_I699T] | 0.879 | 0.538 | 0.444 | 0.275 | 0.83 | 0.448 | 0.646 | 0.608 | 1.12 | 0.812 | 0.467 | 0.433 | 1.01 | 0.399 | 0.644 | 0.347
7 | PEVRRYVLPLN [RPE65_Y368] | 0.807 | 0.64 | 0.878 | 0.811 | 1.45 | 0.893 | 0.606 | 0.916 | 1.44 | 1.2 | 0.804 | 1.3 | 1.41 | 0.92 | 1.3 | 0.597
8 | PFRSIYFSSPK [MPG_Y75_YF] | 0.843 | 0.565 | 0.447 | 0.571 | 0.666 | 0.595 | 0.599 | 1.11 | 0.398 | 0.553 | 0.669 | 0.382 | 0.851 | 0.463 | 0.809 | 0.658
9 | PGLSSYGVPGS [FLNB_Y1530_A1534G] | 0.934 | 0.611 | 0.534 | 0.578 | 0.786 | 0.508 | 0.623 | 0.543 | 0.715 | 0.355 | 0.454 | 0.494 | 0.774 | 0.622 | 0.643 | 0.598
10 | PINEPYGDDLD [JUP_Y693_M697L] | 0.727 | 0.568 | 0.655 | 0.921 | 1.16 | 0.734 | 0.873 | 0.532 | 0.972 | 1.16 | 0.696 | 0.799 | 1.35 | 0.653 | 0.988 | 0.781
11 | PKEQKYSFLQD [GH1_Y68_N73D] | 0.945 | 0.895 | 1.15 | 0.693 | 1.16 | 0.435 | 0.597 | 0.619 | 1.05 | 0.809 | 0.628 | 0.605 | 0.948 | 0.858 | 0.532 | 0.523
12 | PLDNLYAEPAV [PRPS1_Y146_V142L] | 0.995 | 0.655 | 0.486 | 12.9 | 1.66 | 4.92 | 0.719 | 4.65 | 10.6 | 1.83 | 2.06 | 9.6 | 2.72 | 8.88 | 1.09 | 2.13
13 | PMWHPYKVDVT [TP53TG5_Y255] | 0.525 | 0.487 | 0.436 | 0.54 | 1.27 | 0.611 | 0.561 | 0.5 | 0.433 | 0.643 | 2.06 | 0.753 | 1.09 | 0.398 | 0.872 | 1.3
14 | PPGRSYSPCDF [TNS1_Y793_Y796C_YF] | 1.25 | 0.839 | 0.696 | 0.858 | 1.16 | 0.689 | 0.716 | 0.639 | 0.902 | 0.679 | 0.649 | 0.895 | 1.01 | 0.676 | 0.816 | 0.431
15 | PQGVRYTFTID [DCX_Y103_I104T_YF] | 0.786 | 0.729 | 0.452 | 1.04 | 1.66 | 0.796 | 0.521 | 0.642 | 1.55 | 1.48 | 0.529 | 0.768 | 1.41 | 0.356 | 1.36 | 0.7
16 | PRARTYCFKQE [KLHDC9_Y175_S171R_YF] | 1.38 | 1.12 | 1.35 | 0.301 | 0.458 | 0.383 | 0.395 | 0.502 | 0.591 | 0.435 | 0.458 | 0.345 | 0.519 | 0.355 | 0.517 | 0.421
17 | PRDSGYSYETI [MAP1B_Y1921_S1917R] | 0.774 | 0.564 | 12.7 | 0.745 | 1.29 | 0.777 | 0.679 | 0.405 | 0.542 | 0.781 | 0.467 | 0.448 | 0.917 | 0.55 | 0.898 | 0.354
18 | PRRRFYVVACD [RNASE3_Y134_G130R] | 0.592 | 0.486 | 0.47 | 0.701 | 0.667 | 0.433 | 0.614 | 0.705 | 0.715 | 0.733 | 0.545 | 0.543 | 0.597 | 0.73 | 0.656 | 0.759
19 | PSELYYSKIGP [SMG1_Y2254] | 0.666 | 2.26 | 5.62 | 2.91 | 1.68 | 16.3 | 12.9 | 18.8 | 3.88 | 4.02 | 10.8 | 5.13 | 2.07 | 23.8 | 8.9 | 8.78
20 | PTDGVYVMPTV [MYO7A_Y1668_S1666G] | 0.885 | 0.943 | 0.848 | 1.48 | 1.21 | 0.789 | 2.95 | 6.35 | 4.76 | 1.3 | 7.86 | 2.01 | 6.14 | 11.7 | 2.52 | 14
21 | PTEAQYRFIFM [PTPN11_Y511_Q506P_YF] | 0.585 | 0.593 | 0.317 | 0.767 | 1.81 | 1.06 | 1.9 | 1.07 | 1.32 | 1.44 | 0.477 | 0.876 | 1.6 | 0.702 | 1.21 | 0.939
22 | PVQAAYQKVEA [HBB_Y131_V135E] | 1.02 | 0.733 | 1.05 | 0.559 | 0.887 | 0.676 | 0.709 | 0.653 | 0.879 | 1.16 | 0.587 | 0.54 | 0.921 | 0.604 | 0.525 | 0.597

Further lines, with some results ahead:

Row | SH2 binding enrichment [1] | SH2 binding enrichment [2] | SH2 binding enrichment [3] | Sequence | phosphorylation enrichment [4] | phosphorylation enrichment [5] | phosphorylation enrichment [6] | phosphorylation enrichment [7] | phosphorylation enrichment [8] | phosphorylation enrichment [9] | phosphorylation enrichment [10] | phosphorylation enrichment [11] | phosphorylation enrichment [12] | phosphorylation enrichment [13] | phosphorylation enrichment [14] | phosphorylation enrichment [15] | phosphorylation enrichment [16]
23 | 0.75 | 0.673 | 0.475 | PEADKYRLTFA [FGG_Y300_YF] | 0.697 | 1.18 | 0.546 | 0.626 | 0.76 | 0.918 | 1 | 0.568 | 0.887 | 1.05 | 0.451 | 0.78 | 0.553
24 | 1.01 | 0.919 | 0.641 | PELINCHQHNS [BTK_Y361_Y361C] | 0.9 | 1.04 | 0.56 | 0.682 | 0.544 | 0.876 | 0.971 | 0.69 | 0.676 | 0.938 | 0.712 | 0.7 | 0.297
25 | 1 | 0.767 | 0.466 | PELINYHQHNS [BTK_Y361] | 0.769 | 1.06 | 0.664 | 1.27 | 0.69 | 0.561 | 1 | 0.68 | 0.666 | 0.981 | 0.579 | 1.02 | 0.648
26 | 0.682 | 0.524 | 0.446 | PGVNFYFQVSA | 1.24 | 1.93 | 0.724 | 0.557 | 0.526 | 1.29 | 1.61 | 0.523 | 1.27 | 1.41 | 0.445 | 1 | 0.414
27 | 1.04 | 1.11 | 2.17 | PKEQRYSFLQN [GH1_Y68_K67R] | 0.901 | 1.44 | 0.902 | 1.12 | 0.904 | 0.744 | 1.62 | 0.631 | 0.75 | 1.27 | 6.49 | 0.617 | 0.605
28 | 0.884 | 0.647 | 0.408 | PLGKDYRKAEG [MAP1A_Y1909] | 0.532 | 0.941 | 0.655 | 0.691 | 0.945 | 0.505 | 0.378 | 0.456 | 0.512 | 0.68 | 0.589 | 0.787 | 0.72
29 | 0.81 | 0.865 | 2.12 | PLQNTYNYNVL [SLC4A1_Y553_K551N] | 1.6 | 0.894 | 0.233 | 0.37 | 0.6 | 1.51 | 0.67 | 0.745 | 0.939 | 0.634 | 0.737 | 0.545 | 0.65
30 | 0.959 | 4.8 | 3.63 | PNKAVYTKMMT [G6PD_Y401_E398K] | 0.519 | 0.562 | 0.656 | 0.661 | 0.437 | 0.426 | 0.59 | 0.601 | 0.467 | 0.65 | 0.332 | 0.423 | 0.422
31 | 1.06 | 0.601 | 0.601 | PPEFSYGLQTQ [SRA1_Y35_Q32E] | 0.802 | 1.09 | 0.453 | 0.568 | 0.416 | 0.661 | 0.997 | 0.486 | 0.565 | 0.724 | 0.428 | 0.772 | 0.446
32 | 0.531 | 0.598 | 0.401 | PRNLIYFGEHP [TRPV6_Y201_C197R] | 0.925 | 1.51 | 0.619 | 0.423 | 0.932 | 0.92 | 1.57 | 1.08 | 0.631 | 1.23 | 0.448 | 0.912 | 0.738
33 | 0.755 | 0.507 | 0.312 | PRPAGYPSMVS [CACNA1C_Y1832_T1835M] | 0.561 | 0.668 | 0.412 | 0.386 | 0.456 | 0.435 | 0.475 | 0.416 | 0.393 | 0.678 | 0.365 | 0.364 | 0.48
